These results are taken from patent US20170296640A1 (IMMATICS BIOTECHNOLOGIES, published 2017).

In this experiment the target is T1, HLA-A*02:01 (peptide-receptive MHC class I monomer after UV cleavage of the UV-sensitive ligand) (human).
T1 construct: MHC monomers loaded by UV-ligand exchange and captured on streptavidin plates
The experiment can be described thus: UV ligand-exchange ELISA; exchange yield grade (+ >=10%, ++ >=20%, +++ >=50%, ++++ >=75%). In outline:
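Exchange yield is an ELISA read-out: complexes diluted 100-fold, captured on streptavidin plates, detected with HRP anti-β2m and TMB at 450 nm. Standard curve from refolded HLA-A*02:01/MLA-001 (15-500 ng/ml); complexes made by UV-triggered displacement of a photolabile ligand by test peptide.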
In general terms: In an ELISA, binding on a coated surface is turned into a signal by an enzyme label.

Molecule LLANIVPIAMLV [LLANIVPIAMLV (SEQ ID NO: 33)] came in with a peptide exchange yield of at least 75%.
Then ILSTLDVEL [ILSTLDVEL (SEQ ID NO: 30)], with 50 to 75%; and SLAELDEKISA [SLAELDEKISA (SEQ ID NO: 302)], with 50 to 75%; and SLLNHLPYL [SLLNHLPYL (SEQ ID NO: 280)], with at least 75%.
Then IVLERNPEL [IVLERNPEL (SEQ ID NO: 300)], with 50 to 75%.
Then YLHRQVAAV [YLHRQVAAV (SEQ ID NO: 311)], with 50 to 75%.
FVWEASHYL [FVWEASHYL (SEQ ID NO: 303)] gave a peptide exchange yield of at least 75%.
Then KLINSQISL [KLINSQISL (SEQ ID NO: 292)], with 50 to 75%; and SLSSERYYL [SLSSERYYL (SEQ ID NO: 35)], with 50 to 75%; and ILMGHSLYM [ILMGHSLYM (SEQ ID NO: 287)], with at least 75%.
Then KLYGPEGLELV [KLYGPEGLELV (SEQ ID NO: 294)], with at least 75%; and NMISYVVHL [NMISYVVHL (SEQ ID NO: 276)], with 20 to 50%; and IASPVIAAV [IASPVIAAV (SEQ ID NO: 290)], with 50 to 75%.
Regarding KLMDLEDCAL [KLMDLEDCAL (SEQ ID NO: 275)], the peptide exchange yield was at least 75%.
The result for LMGPVVHEV [LMGPVVHEV (SEQ ID NO: 262)] reads at least 75%; that for SLSFVSPSL [SLSFVSPSL (SEQ ID NO: 309)], 50 to 75%; that for FLQEWEVYA [FLQEWEVYA (SEQ ID NO: 257)], at least 75%.
As to GLMDNEIKV [GLMDNEIKV (SEQ ID NO: 263)], the peptide exchange yield fell in the range of 50 to 75%.
The result for TVLDGLEFKV [TVLDGLEFKV (SEQ ID NO: 259)] reads at least 75%; that for FLPETRIMTSV [FLPETRIMTSV (SEQ ID NO: 261)], at least 75%.
For the molecule RLDEAFDFV [RLDEAFDFV (SEQ ID NO: 260)], the peptide exchange yield was at least 75%.
The result for HLTEDTPKV [HLTEDTPKV (SEQ ID NO: 286)] reads 50 to 75%.
Then KLQEQIHRV [KLQEQIHRV (SEQ ID NO: 284)], with 50 to 75%.
GLAMVEAISYV [GLAMVEAISYV (SEQ ID NO: 293)] gave a peptide exchange yield of at least 75%.
Then AMLAQQMQL [AMLAQQMQL (SEQ ID NO: 305)], with 50 to 75%.
As to FILEPLYKI [FILEPLYKI (SEQ ID NO: 296)], the peptide exchange yield was at least 75%.
For the molecule RLAPEIVSA [RLAPEIVSA (SEQ ID NO: 288)], the peptide exchange yield lay in the range of 50 to 75%.
Regarding KLDHTLSQI [KLDHTLSQI (SEQ ID NO: 272)], the peptide exchange yield fell in the range of 50 to 75%.
Consider SITAVTPLL [SITAVTPLL (SEQ ID NO: 285)], for which the peptide exchange yield is 50 to 75%.
RIYPFLLMV [RIYPFLLMV (SEQ ID NO: 258)] displayed a peptide exchange yield of 50 to 75%.
As to YLLEQGAQV [YLLEQGAQV (SEQ ID NO: 282)], the peptide exchange yield was at least 75%.
FLLPVAVKL [FLLPVAVKL (SEQ ID NO: 307)] displayed a peptide exchange yield of 50 to 75%.
As for ILTGTPPGV [ILTGTPPGV (SEQ ID NO: 264)], the peptide exchange yield lay within 50 to 75%.
In turn, TLQTVPLTTV [TLQTVPLTTV (SEQ ID NO: 281)] yielded a peptide exchange yield of at least 75%.
The result for VLFPLPTPL [VLFPLPTPL (SEQ ID NO: 268)] reads at least 75%; that for KIIDTAGLSEA [KIIDTAGLSEA (SEQ ID NO: 291)], 50 to 75%.
Regarding ILSDVTQGL [ILSDVTQGL (SEQ ID NO: 29)], the peptide exchange yield was 50 to 75%.
SLAAVSQQL [SLAAVSQQL (SEQ ID NO: 295)] came in with a peptide exchange yield of 50 to 75%.
On to LIDDKGTIKL [LIDDKGTIKL (SEQ ID NO: 314)], for which the peptide exchange yield fell in the range of 20 to 50%.
ALTDVILCV [ALTDVILCV (SEQ ID NO: 298)] displayed a peptide exchange yield of at least 75%.
Then ILWHFVASL [ILWHFVASL (SEQ ID NO: 265)], with at least 75%; and FLNQESFDL [FLNQESFDL (SEQ ID NO: 27)], with 50 to 75%; and FLSNANPSL [FLSNANPSL (SEQ ID NO: 28)], with 50 to 75%.
In turn, VLNEDELPSV [VLNEDELPSV (SEQ ID NO: 32)] registered a peptide exchange yield of 50 to 75%.
With KLYDEESLL [KLYDEESLL (SEQ ID NO: 31)], the peptide exchange yield is at least 75%.
The result for YLLDQPVLEQRL [YLLDQPVLEQRL (SEQ ID NO: 271)] reads at least 75%.
The result for NLAGENILNPL [NLAGENILNPL (SEQ ID NO: 279)] reads 50 to 75%; that for LTIDTQYYL [LTIDTQYYL (SEQ ID NO: 3)], 50 to 75%.
In the case of AILLPQPPK [AILLPQPPK (SEQ ID NO: 273)], the peptide exchange yield lay within 20 to 50%.
AQVALVNEV [AQVALVNEV (SEQ ID NO: 306)] came in with a peptide exchange yield of 50 to 75%.
In the case of SLLAANNLL [SLLAANNLL (SEQ ID NO: 289)], the peptide exchange yield is at least 75%.
The result for LLWEDGVTEA [LLWEDGVTEA (SEQ ID NO: 34)] reads 50 to 75%; that for ALMPVTPQA [ALMPVTPQA (SEQ ID NO: 283)], 50 to 75%; that for RLLEEEGVSL [RLLEEEGVSL (SEQ ID NO: 299)], 50 to 75%.
Then ALIRLDDLFL [ALIRLDDLFL (SEQ ID NO: 304)], with 50 to 75%.
The result for KLLNLISKL [KLLNLISKL (SEQ ID NO: 274)] reads at least 75%.
Molecule ILQNGLETL [ILQNGLETL (SEQ ID NO: 297)] had a peptide exchange yield of 50 to 75%.
Consider FLLFINHRL [FLLFINHRL (SEQ ID NO: 278)], for which the peptide exchange yield was in the range of 50 to 75%.
Then FLIDLNSTHGTFL [FLIDLNSTHGTFL (SEQ ID NO: 277)], with 50 to 75%.
With QLTEMLPSI [QLTEMLPSI (SEQ ID NO: 266)], the peptide exchange yield was at least 75%.
Then LQFDGIHVV [LQFDGIHVV (SEQ ID NO: 301)], with 50 to 75%; and VMAEAPPGV [VMAEAPPGV (SEQ ID NO: 310)], with 50 to 75%.
Then VVVDSDSLAFV [VVVDSDSLAFV (SEQ ID NO: 270)], with at least 75%; and SLLDQIPEM [SLLDQIPEM (SEQ ID NO: 308)], with 50 to 75%; and SLLETGSDLLL [SLLETGSDLLL (SEQ ID NO: 267)], with 50 to 75%.
For the molecule VLQNVAFSV [VLQNVAFSV (SEQ ID NO: 269)], the peptide exchange yield was at least 75%.
